From the supplement of paper PMC12042874 come the findings set out here.

± gives the uncertainty stated by the source.

A short description of the series: amyloid nucleation score (Sup35N fusion, yeast selection) (log enrichment); library NNK2; higher = more nucleation; inactive = no reads after selection. The procedure, abridged:
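The nucleation score equals the log enrichment of output over input reads from DiMSum, centred on the mode score of non-aggregating sequences. It was computed only for sequences with 100 or more input reads. The reads came from Illumina sequencing of plasmid inserts from psi-negative yeast expressing Sup35N fused to peptides of 20 random codons, induced with 100 μM copper sulfate for 24 hours and grown 7 days at 30°C without adenine and uracil.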
As to LRYHKTILYTRFSRNHTYAT, the amyloid nucleation score was found to be 0.498 ± 0.74.
In the case of LSAVLSAHIMVCLGYAYLG, the amyloid nucleation score entry is “inactive”.
As for LSAVWLWVNFFQHMTNRC, the amyloid nucleation score was -1.71 ± 0.76.
Under LSFFDLIMGVRGMLQSVCGL stands -0.131 ± 0.56; under LSFRGDSR, 0.243 ± 0.26; under LSGDNCPRV, -0.342 ± 0.49.
LSGMIGSSWAFVSLALIRYQ gave an amyloid nucleation score of -0.798 ± 0.64.
Take LSGSPVYCYCRLR: the amyloid nucleation score is -0.453 ± 0.78.
Take LSGVFNSFCLRGNGREWVAL: the amyloid nucleation score was -0.034 ± 0.32.
Turning to LSHLISFRLTTTSNFRFWDH, the amyloid nucleation score stood at 3.15 ± 0.093.
Take LSHLLDGGISLKEGYILWMM: the amyloid nucleation score was -0.252 ± 0.55.
LSIMHYIIYRLDFAFSWKGG: the amyloid nucleation score is -1.05 ± 1.1.
Next, LSIRWLTSCYLYGLLGSSGK: 0.256 ± 0.29.
With LSKYLMQYNTCRLESKS, the amyloid nucleation score was -0.336 ± 0.16.
Take LSLFVQMMSVGTILLYRMTL: the amyloid nucleation score amounted to 0.715 ± 0.34.
Under LSLKVKYFQKDTRVGNGEHK stands 2.15 ± 0.076.
Next, LSPTYRFGTTSSWGINGRDT: 0.716 ± 0.24.
In the case of LSQARVYLCYFEFSYFVVEP, the amyloid nucleation score is 1.83 ± 0.12.
Next, LSRDVHCSRFSHREGLITRT: 0.767 ± 0.74.
In turn, LSRKTYWA yielded an amyloid nucleation score of 0.894 ± 0.43.
Substance LSSLTLSMVA showed an amyloid nucleation score of 0.561 ± 0.62.
Consider LSVEFARYTG, for which the amyloid nucleation score stood at 1.25 ± 0.15.
The substance LSVFVSGAPQIKLSNMVVKN gave an amyloid nucleation score of -0.348 ± 0.76.
LSVMLTYYGYMPNLYIVVRE had an amyloid nucleation score of -0.713 ± 0.49.
Next, LSVRPASNELCAHVVVRFEC: 3.66 ± 0.09; LSWDYLSWTREI: -0.333 ± 0.24.
LSWWIHVTVWFPFQVKTGYL showed an amyloid nucleation score of -0.904 ± 0.78.
Consider LTCFSPLVRLEGA, for which the amyloid nucleation score was -0.212 ± 0.49.
Next, LTCSVNTGYYGYIRRL: -0.607 ± 0.25; LTDCLLLLFGLLGRFYRNLS: “inactive”.
The substance LTFRAVSWTWCYPPELSSCS gave an amyloid nucleation score of 0.775 ± 0.49.
In turn, LTFYCME came in with an amyloid nucleation score of -0.465 ± 0.45.
Next, LTGLVSLPRCWTIWVPWREG: 1.43 ± 0.25.
On to LTGNAWSSMIYSNYNMGVYS, for which the amyloid nucleation score result is “inactive”.
The substance LTGSFYQHNGMLSTPRHRCL registered an amyloid nucleation score of -0.547 ± 0.63.
On to LTIDQHKVCLPN, for which the amyloid nucleation score entry was “inactive”.
LTIFNYSFWKVDY showed an amyloid nucleation score of 0.91 ± 0.18.
Next, LTPLSNIGCTCDYLMDCSYL: “inactive”.
As to LTRCMCPLGDIMRHKEKPEM, the amyloid nucleation score is -1.25 ± 1.1.
LTRKKKMQFF: the amyloid nucleation score entry is “inactive”.
Under LTRLFYPWK stands -0.14 ± 1.1.
The substance LTSGQEGG displayed an amyloid nucleation score of 0.047 ± 0.45.
LTSMRRCPGVYVGNCGVAGR yielded an amyloid nucleation score of 1 ± 0.35.
For the substance LTTPGQNLLILWTLSNMFMI, the amyloid nucleation score result is “inactive”.
In turn, LTTSIL had an amyloid nucleation score of -1.06 ± 0.39.
As to LTVTW, the amyloid nucleation score came out at 1.2 ± 0.21.
Substance LTWFWMHSYSSFRIENHVDD gave an amyloid nucleation score of 2.18 ± 0.12.
In the case of LTYNISQCYILFFVYITGHD, the amyloid nucleation score result is “inactive”.
The substance LVAFFFVSPFGGGHIAIRLR returned an amyloid nucleation score of -0.114 ± 1.1.
Regarding LVAIDSAFCTLGMPSADPVS, the amyloid nucleation score was -0.097 ± 0.25.
LVCSNWCIVPFMYGTRHRKE: the amyloid nucleation score was determined as 9.299 ± 0.03.
Next, LVFDRFDGNFNRSMSVAVRV: -0.211 ± 0.39; LVFFSLDFYYRGWHRDWIAG: -1.26 ± 0.64; LVKNSIKRGYL: “inactive”.
The substance LVKTFYKKWIVREREFWILR gave an amyloid nucleation score of -0.176 ± 1.1.
LVLENHWYLLVCRNPVQ yielded an amyloid nucleation score of -0.213 ± 0.65.
On to LVLIFMDLSTGWLLSSISDI, for which the amyloid nucleation score amounted to 2.33 ± 0.066.
Under LVLNKNCLKVI stands -0.426 ± 0.6; under LVLRRWMSVRYFMGLTMKVR, “inactive”; under LVNNGRVLSCYICV, 9.171 ± 0.056.
Turning to LVPGYWYMWVTGNVKRVFCD, the amyloid nucleation score is -1.54 ± 0.62.
LVRLFS: the amyloid nucleation score was -0.701 ± 0.63.
Under LVRMIIVYTCRW stands 0.533 ± 0.33; under LVSIPSWCPTLASQKLIPR, 2.94 ± 0.19; under LVSMAIECHLLYLLE, 0.931 ± 0.47.
Consider LVSNSSLSYPLDSYGSSRSD, for which the amyloid nucleation score is -0.113 ± 0.49.
Regarding LVSYV, the amyloid nucleation score was -0.873 ± 0.76.
The substance LVTEVEFMSTAAGKECYCNI returned an amyloid nucleation score of -0.555 ± 0.35.
As to LVVVKFTEVKALCFSVWGMG, the amyloid nucleation score was determined as 1.05 ± 0.57.
As to LVWTVPTGVLFRHGC, the amyloid nucleation score was 1.57 ± 0.24.
Substance LVYLIGSGNLQRISFPQRRV registered an amyloid nucleation score of 5.51 ± 0.067.
Take LWDMIRNGC: the amyloid nucleation score is -0.769 ± 0.45.
Next, LWGVYD: -0.212 ± 0.65; LWITTGNGGVPV: -0.144 ± 0.45.
As for LWIVMVVRTTQQTYATMGHG, the amyloid nucleation score came out at 0.955 ± 0.29.
LWLGLFGCVVLHGFRIKMAL had an amyloid nucleation score of 0.251 ± 0.35.
With LWLVSRRNACFA, the amyloid nucleation score was -0.408 ± 1.
Next, LWNSIDNS: “inactive”; LWRGRIFLICFRSRDSNMCL: “inactive”.
Take LWRILVALFAISILRTLVMQ: the amyloid nucleation score is 1.63 ± 0.2.
For LWRVGHVHSWICPAICHGKC, the amyloid nucleation score turned out to be 4.37 ± 0.057.
In turn, LWSEGMTLASADCR had an amyloid nucleation score of 0.721 ± 0.22.
LWSLLLWLPTYRYRLYLFGA showed an amyloid nucleation score of -0.113 ± 0.79.
Substance LWVVILGVGTSSNESYCKYV registered an amyloid nucleation score of -0.427 ± 0.45.
Turning to LYFASVNQTNSFLRIL, the amyloid nucleation score was 2.93 ± 0.073.
Under LYFWPLTFRSGHCCGLSQVK stands 1.16 ± 0.61; under LYHPACSAFSRSFCVKFLYW, -0.837 ± 0.61; under LYIASSSLHCGLDVAW, -0.298 ± 0.49.
LYINGEISVVIRIWFGPLVV: the amyloid nucleation score was found to be 0.517 ± 0.53.
LYISQSCGRHD displayed an amyloid nucleation score of -0.554 ± 0.22.
Regarding LYIVDPSTASKAHTSSLPKS, the amyloid nucleation score was -0.324 ± 0.55.
The substance LYLEMMCAIVWQQSYRHNRT yielded an amyloid nucleation score of 0.727 ± 0.13.
Next, LYLRRWSPGLVMIQYPIILW: 0.545 ± 0.42; LYLTSNIFLCLIYDL: 0.576 ± 0.18.
The substance LYLVEARVTLYILGPWVVSR came in with an amyloid nucleation score of 0.927 ± 0.45.
Substance LYLYGDYV came in with an amyloid nucleation score of 7.65 ± 0.079.
For LYMYKNAKVLVSHLYYWYNY, the amyloid nucleation score result is “inactive”.
The substance LYPRPPYSRWIIANHSNWGS yielded an amyloid nucleation score of 0.218 ± 0.8.
Take LYRFSSLLWLSVSSSCDIV: the amyloid nucleation score entry was “inactive”.
Regarding LYSCCLQCSSTNSIYEDLMC, the amyloid nucleation score result is “inactive”.
Turning to LYSESIVLFAYGFNGDGGLY, the amyloid nucleation score was -0.67 ± 0.29.
Substance LYTLVFIKNFISMYLREILT came in with an amyloid nucleation score of -1.8 ± 0.48.
Take LYTMNLHYFLLFEESVS: the amyloid nucleation score was -0.835 ± 0.28.
